Test results reported in the Human Domainome abundance scans (Beltran et al. 2025).
± gives the uncertainty stated by the source.

B1: Segment polarity protein dishevelled homolog DVL-3, residues 2 to 81; numbered along this chain, Q92997 (parent)
chain: GETKIIYHLDGQETPYLVKLPLPAERVTLADFKGVLQRPSYKFFFKSMDDDFGVVKEEISDDNAKLPCFNGRVVSWLVSA

Variants of: B1
Test: abundance fitness (aPCA) (normalised: wild type 0, dead -1); higher = more abundant; growth selection in yeast, the domain comes from the species named
Conditions: Homo sapiens

In order of rising abundance fitness:
1. GETKIIYHLDGQETPYLVKLPLPAERVTLADFKGVLQRPSYKFFFKSMDDDFGVVKEEISDDNAKLPCFNCRVVSWLVSA [G71C]  -0.957 ± 0.16
2. GETKIIYHLDGQETPYLVKLPLPAERVTLADFKGVLQRPSYKFFFKSMDDDFGVVKEEISDDNAKLPCPNGRVVSWLVSA [F69P]  -0.918 ± 0.26
3. GETKIIYHLDGQETPYLVKLPLPAERVTLADFKGVLQRPSYKFFFKSMDDDFGVVKEEISDDNAKLPCFYGRVVSWLVSA [N70Y]  -0.915 ± 0.15
4. GETKIIYHLDGQETPYLVKLPLPAERVTLADFKGVLQRPSYKFFFKSMDDDFGVVKEEISDDNAKLPCFNARVVSWLVSA [G71A]  -0.782 ± 0.15
5. GETKIIYHLDGQETPYLVKLPLPAERVTLADFKGVLQRPSYKFFFKSMDDDFGVVKEEISDDNAKLPCFLGRVVSWLVSA [N70L]  -0.757 ± 0.13
6. GETKIIYHLDGQETPYLVKLPLPAERVTLADFKGVLQRPSYKFFFKSMDDDFGVVKEEISDDNAKLPCFNFRVVSWLVSA [G71F]  -0.725 ± 0.12
7. GETKIIYHLDGQETPYLVKLPLPAERVTLADFKGVLQRPSYKFFFKSMDDDFGVVKEEISDDNAKLPCFWGRVVSWLVSA [N70W]  -0.634 ± 0.23
8. GETKIIYHLDGQETPYLVKLPLPAERVTLADFKGVLQRPSYKFFFKSMDDDFGVVKEEISDDNAKLPCFPGRVVSWLVSA [N70P]  -0.628 ± 0.14
9. GETKIIYHLDGQETPYLVKLPLPAERVTLADFKGVLQRPSYKFFFKSMDDDFGVVKEEISDDNAKLPCGNGRVVSWLVSA [F69G]  -0.605 ± 0.089
10. GETKIIYHLDGQETPYLVKLPLPAERVTLADFKGVLQRPSYKFFFKSMDDDFGVVKEEISDDNAKLPCFAGRVVSWLVSA [N70A]  -0.602 ± 0.12
11. GETKIIYHLDGQETPYLVKLPLPAERVTLADFKGVLQRPSYKFFFKSMDDDFGVVKEEISDDNAKLPCFVGRVVSWLVSA [N70V]  -0.593 ± 0.077
12. GETKIIYHLDGQETPYLVKLPLPAERVTLADFKGVLQRPSYKFFFKSMDDDFGVVKEEISDDNAKLPCFSGRVVSWLVSA [N70S]  -0.568 ± 0.083
13. GETKIIYHLDGQETPYLVKLPLPAERVTLADFKGVLQRPSYKFFFKSMDDDFGVVKEEISDDNAKLPCFNDRVVSWLVSA [G71D]  -0.482 ± 0.11
14. GETKIIYHLDGQETPYLVKLPLPAERVTLADFKGVLQRPSYKFFFKSMDDDFGVVKEEISDDNAKLPCFCGRVVSWLVSA [N70C]  -0.467 ± 0.097
15. GETKIIYHLDGQETPYLVKLPLPAERVTLADFKGVLQRPSYKFFFKSMDDDFGVVKEEISDDNAKLPCFTGRVVSWLVSA [N70T]  -0.466 ± 0.11
16. GETKIIYHLDGQETPYLVKLPLPAERVTLADFKGVLQRPSYKFFFKSMDDDFGVVKEEISDDNAKLPCFFGRVVSWLVSA [N70F]  -0.449 ± 0.077
17. GETKIIYHLDGQETPYLVKLPLPAERVTLADFKGVLQRPSYKFFFKSMDDDFGVVKEEISDDNAKLPCQNGRVVSWLVSA [F69Q]  -0.423 ± 0.22
18. GETKIIYHLDGQETPYLVKLPLPAERVTLADFKGVLQRPSYKFFFKSMDDDFGVVKEEISDDNAKLPCFMGRVVSWLVSA [N70M]  -0.374 ± 0.17
19. GETKIIYHLDGQETPYLVKLPLPAERVTLADFKGVLQRPSYKFFFKSMDDDFGVVKEEISDDNAKLPCNNGRVVSWLVSA [F69N]  -0.361 ± 0.085
20. GETKIIYHLDGQETPYLVKLPLPAERVTLADFKGVLQRPSYKFFFKSMDDDFGVVKEEISDDNAKLPCTNGRVVSWLVSA [F69T]  -0.352 ± 0.1
21. GETKIIYHLDGQETPYLVKLPLPAERVTLADFKGVLQRPSYKFFFKSMDDDFGVVKEEISDDNAKLPCFQGRVVSWLVSA [N70Q]  -0.341 ± 0.19
22. GETKIIYHLDGQETPYLVKLPLPAERVTLADFKGVLQRPSYKFFFKSMDDDFGVVKEEISDDNAKLPCRNGRVVSWLVSA [F69R]  -0.272 ± 0.073
23. GETKIIYHLDGQETPYLVKLPLPAERVTLADFKGVLQRPSYKFFFKSMDDDFGVVKEEISDDNAKLPCFRGRVVSWLVSA [N70R]  -0.249 ± 0.077
24. GETKIIYHLDGQETPYLVKLPLPAERVTLADFKGVLQRPSYKFFFKSMDDDFGVVKEEISDDNAKLPCLNGRVVSWLVSA [F69L]  -0.214 ± 0.07
25. GETKIIYHLDGQETPYLVKLPLPAERVTLADFKGVLQRPSYKFFFKSMDDDFGVVKEEISDDNAKLPCMNGRVVSWLVSA [F69M]  -0.201 ± 0.11
26. GETKIIYHLDGQETPYLVKLPLPAERVTLADFKGVLQRPSYKFFFKSMDDDFGVVKEEISDDNAKLPCWNGRVVSWLVSA [F69W]  -0.191 ± 0.14
27. GETKIIYHLDGQETPYLVKLPLPAERVTLADFKGVLQRPSYKFFFKSMDDDFGVVKEEISDDNAKLPCFHGRVVSWLVSA [N70H]  -0.165 ± 0.08
28. GETKIIYHLDGQETPYLVKLPLPAERVTLADFKGVLQRPSYKFFFKSMDDDFGVVKEEISDDNAKLPCSNGRVVSWLVSA [F69S]  -0.163 ± 0.057
29. GETKIIYHLDGQETPYLVKLPLPAERVTLADFKGVLQRPSYKFFFKSMDDDFGVVKEEISDDNAKLPCKNGRVVSWLVSA [F69K]  -0.146 ± 0.12
30. GETKIIYHLDGQETPYLVKLPLPAERVTLADFKGVLQRPSYKFFFKSMDDDFGVVKEEISDDNAKLPCVNGRVVSWLVSA [F69V]  -0.078 ± 0.053
31. GETKIIYHLDGQETPYLVKLPLPAERVTLADFKGVLQRPSYKFFFKSMDDDFGVVKEEISDDNAKLPCFEGRVVSWLVSA [N70E]  -0.001 ± 0.1
32. GETKIIYHLDGQETPYLVKLPLPAERVTLADFKGVLQRPSYKFFFKSMDDDFGVVKEEISDDNAKLPCHNGRVVSWLVSA [F69H]  0.001 ± 0.076
33. GETKIIYHLDGQETPYLVKLPLPAERVTLADFKGVLQRPSYKFFFKSMDDDFGVVKEEISDDNAKLPCFKGRVVSWLVSA [N70K]  0.002 ± 0.12
34. GETKIIYHLDGQETPYLVKLPLPAERVTLADFKGVLQRPSYKFFFKSMDDDFGVVKEEISDDNAKLPCFDGRVVSWLVSA [N70D]  0.009 ± 0.065
35. GETKIIYHLDGQETPYLVKLPLPAERVTLADFKGVLQRPSYKFFFKSMDDDFGVVKEEISDDNAKLPCYNGRVVSWLVSA [F69Y]  0.061 ± 0.076
